From publication doi:10.1101/2023.07.20.549907, “Mechanism of outer kinetochore assembly on microtubules and its regulation by mitotic error correction” (bioRxiv, 2023)

B1: Dam1 subunit of the Dam1 complex (natural protein, S. cerevisiae, UniProt P53267 1-343, looked up)
chain: MSEDKAKLGTTRSATEYRLSIGSAPTSRRSSMGESSSLMKFADQEGLTSSVGEYNENTIQQLLLPKIRELSDSIITLDSNFTRLNFIHESLADLNESLGSLLYGIMSNSWCVEFSQAPHDIQDDLIAIKQLKSLEDEKNNLVMELSNMERGIKRKKDEQGENDLAKASQNKQFNQPLFPSSQVRKYRSYDNRDKRKPSKIGNNLQVENEEDYEDDTSSEASFVLNPTNIGMSKSSQGHVTKTTRLNNNTNSKLRRKSILHTIRNSIASGADLPIENDNVVNLGDLHPNNRISLGSGAARVVNGPVTKNRNSMFSGRAERKPTESRHSVAKKTEKKINTRPPFR
notes: Dam1 subunit of the S. cerevisiae Dam1 complex; Stood in the structure as part of the whole Dam1 complex; also called Dam1^Staple (residues 1-26); Dam1^C-ter; source: as subunit of m2
B2: Spc34 subunit of the Dam1 complex (natural protein, S. cerevisiae, UniProt P36131 1-295, looked up)
chain: MGESLDRCIDDINRAVDSMSTLYFKPPGIFHNAILQGASNKASIRKDITRLIKDCNHDEAYLLFKVNPEKQSVSRRDGKEGVFDYVIKRDTDMKRNRRLGRPGEKPIIHVPKEVYLNKDRLDLNNKRRRTATTSGGGLNGFIFDTDLIGSSVISNSSSGTFKALSAVFKDDPQIQRLLYALENGSVLMEEESNNQRRKTIFVEDFPTDLILKVMAEVTDLWPLTEFKQDYDQLYHNYEQLSSKLRFIKKEVLLQDDRLKTMSQYHPSSSHDVAKIIRKEKDEIRRLEMEIANLQE
notes: Spc34 subunit of the S. cerevisiae Dam1 complex; Stood in the structure as part of the whole Dam1 complex; source: as subunit of m2

Key:
Assay in all cases: cryo-EM structure; complexes assembled on cryo-EM grids by step-wise addition of taxol-stabilized microtubule filaments, Ndc80c and Dam1c; sub-boxing, signal subtraction and symmetry expansion for the separate reconstructions
Details in all cases: both partners purified
[1] = target: T1, Nuf2 subunit of the Ndc80 complex (S. cerevisiae, UniProt P33895 1-451)
T1 construct: Nuf2 subunit of the budding yeast Ndc80 complex; Stood in the structure as part of the Ndc80 complex; also called Nuf2^CH; Nuf2^CC; source: as subunit of m1

[2] = target: T2, Ndc80 subunit of the Ndc80 complex (S. cerevisiae, UniProt P40460 1-691)
T2 construct: Ndc80 subunit of the budding yeast Ndc80 complex; Stood in the structure as part of the Ndc80 complex; also called Ndc80^CH; Ndc80^CC; source: as subunit of m1

[3] = target: T3, Ndc80 complex (Ndc80, Nuf2, Spc24, Spc25), budding yeast (S. cerevisiae, UniProt P40460 1-691; P33895 1-451; Q04477 1-213; P40014 1-221)
T3 construct: Ndc80 subunit of the budding yeast Ndc80 complex; Nuf2 subunit of the budding yeast Ndc80 complex; Spc24 subunit of the budding yeast Ndc80 complex; Spc25 subunit of the budding yeast Ndc80 complex; Complex used for cryo-EM; Spc24-Spc25 gave no cryo-EM density; copies: + + +

[4] = target: B2
[5] = target: B1

T2 sequence (P40460 whole entry, one chain of several): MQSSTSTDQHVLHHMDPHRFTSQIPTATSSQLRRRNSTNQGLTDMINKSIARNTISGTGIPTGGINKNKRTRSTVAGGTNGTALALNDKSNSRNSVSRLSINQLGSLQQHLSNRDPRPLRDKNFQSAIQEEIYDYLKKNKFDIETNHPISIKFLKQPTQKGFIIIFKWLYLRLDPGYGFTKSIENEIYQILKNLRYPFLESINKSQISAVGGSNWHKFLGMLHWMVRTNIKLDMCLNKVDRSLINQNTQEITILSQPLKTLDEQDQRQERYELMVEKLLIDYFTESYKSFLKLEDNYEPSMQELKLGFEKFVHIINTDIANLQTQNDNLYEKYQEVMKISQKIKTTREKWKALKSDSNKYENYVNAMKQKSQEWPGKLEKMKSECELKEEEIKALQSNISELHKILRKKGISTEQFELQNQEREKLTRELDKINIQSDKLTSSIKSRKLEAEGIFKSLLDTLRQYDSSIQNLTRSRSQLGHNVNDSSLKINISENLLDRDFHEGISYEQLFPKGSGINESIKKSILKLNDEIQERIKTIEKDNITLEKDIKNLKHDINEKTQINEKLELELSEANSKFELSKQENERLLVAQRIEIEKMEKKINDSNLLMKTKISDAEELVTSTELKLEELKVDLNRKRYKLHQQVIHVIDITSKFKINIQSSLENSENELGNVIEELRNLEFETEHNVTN
T3 sequence (P40460 whole entry, chain 1 of 4): as the sequence (P40460 whole entry, one chain of several) above
T3 sequence (P33895 whole entry, chain 2 of 4): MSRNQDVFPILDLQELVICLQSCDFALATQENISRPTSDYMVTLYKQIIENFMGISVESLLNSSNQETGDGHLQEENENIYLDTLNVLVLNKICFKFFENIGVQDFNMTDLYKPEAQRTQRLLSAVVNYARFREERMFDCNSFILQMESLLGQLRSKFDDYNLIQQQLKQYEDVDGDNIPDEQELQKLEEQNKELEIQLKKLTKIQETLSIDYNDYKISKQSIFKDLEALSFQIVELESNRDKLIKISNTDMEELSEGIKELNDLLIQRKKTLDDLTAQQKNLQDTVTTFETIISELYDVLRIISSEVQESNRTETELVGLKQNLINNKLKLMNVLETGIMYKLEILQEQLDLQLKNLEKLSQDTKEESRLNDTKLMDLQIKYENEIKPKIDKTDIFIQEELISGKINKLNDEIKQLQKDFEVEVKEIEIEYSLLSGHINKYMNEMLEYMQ
T3 sequence (Q04477 whole entry, chain 3 of 4): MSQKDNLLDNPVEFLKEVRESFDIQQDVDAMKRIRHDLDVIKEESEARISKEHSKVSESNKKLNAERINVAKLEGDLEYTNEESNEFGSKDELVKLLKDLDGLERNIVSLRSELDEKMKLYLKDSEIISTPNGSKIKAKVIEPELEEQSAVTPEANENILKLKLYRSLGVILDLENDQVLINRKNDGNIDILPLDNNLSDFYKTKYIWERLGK
T3 sequence (P40014 whole entry, chain 4 of 4): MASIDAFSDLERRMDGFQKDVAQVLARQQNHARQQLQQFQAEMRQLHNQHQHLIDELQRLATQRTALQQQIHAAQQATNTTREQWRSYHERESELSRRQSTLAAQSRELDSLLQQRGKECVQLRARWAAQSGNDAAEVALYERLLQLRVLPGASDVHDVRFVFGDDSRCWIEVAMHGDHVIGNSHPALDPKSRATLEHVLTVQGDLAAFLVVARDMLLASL
T1 sequence (P33895 whole entry, one chain of several): as the sequence (P33895 whole entry, chain 2 of 4) above

Binder	binding result [2]	binding result [5]	further results
B1	binds	–	binding result [1]: binds
B2	–	–	binding result [3]: binds
Spc19 subunit of the Dam1 complex (natural protein, S. cerevisiae, UniProt Q03954 1-165, looked up, Spc19 subunit of the S. cerevisiae Dam1 complex; Stood in the structure as part of the whole Dam1 complex; source: as subunit of m2) MTDALEQSVLALEGTVSVLKDSVESLKCANEPSTNLASTMLQTKRVFRLVPEYDVERSKLDLIEEVEPLVRTLGDKLRKSMGRMQRELDTLQQTYELNDLRLKKNISMDDDDALNSPDMGQEYEGRDADDVVMMASSTNEELEELKKLKEKKKQLENKLEILKQK	binds	–	binding result [4]: binds
Ask1 subunit of the Dam1 complex (natural protein, S. cerevisiae, UniProt P35734 1-292, looked up, Ask1 subunit of the S. cerevisiae Dam1 complex; Stood in the structure as part of the whole Dam1 complex; also called Ask1^B; source: as subunit of m2) MDSASKEETLEKLDQEITVNLQKIDSNLSFCFHKITQDIIPHVATYSEICERIMDSTEWLGTMFQETGLVNLQANAAAPVGNAPVKSLVSNNVGIFPTSAEEASRQSQTDNGPNEADSAVHVNRDVHSMFNNDSIDDFHTANITSTGQILKLPDSSDEDTGSEAVPSREQTDLTGEGHGGADDEQDESTIQRQSRKRKISLLLQQQYGSSSSMVPSPIVPNKMRKQLAHEEHINNDGDNDDENSNNIESSPLKQGHHHPKGQADDNNEGPDEEESTKEVPKPGTIIHFSTNR	–	binds	–
Dad4 subunit of the Dam1 complex (natural protein, S. cerevisiae, UniProt P69851 1-72, looked up, Dad4 subunit of the S. cerevisiae Dam1 complex; Stood in the structure as part of the whole Dam1 complex; also called Dad4^B; source: as subunit of m2) MENPHEQVQANILSRIIGNVKRLNESVAILNQELVTINNRNKNLEIMGAICDNYHSSVQFNLEATNNKKPPL	–	binds	–
Dad1 subunit of the Dam1 complex (natural protein, S. cerevisiae, UniProt Q12248 1-94, looked up, Dad1 subunit of the S. cerevisiae Dam1 complex; Stood in the structure as part of the whole Dam1 complex; also called Dad1^A; source: as subunit of m2) MMASTSNDEEKLISTTDKYFIEQRNIVLQEINETMNSILNGLNGLNISLESSIAVGREFQSVSDLWKTLYDGLESLSDEAPIDEQPTLSQSKTK	–	binds	–
